Patent publication US20250361295A1
One block for each substance: values may come before it.

Experiments:
human LILRB4 (human) [1] = molecular target: human LILRB4 (human) (UniProt Q8NHJ6); test: cell-based or functional assay
[2] = molecular target: human LILRA6 protein (human) (UniProt Q6PI73); test: ELISA, LILRA6 protein
hLILRB3 (human) = hLILRB3 (human) (UniProt O75022); test: FACS; isotype control
human LILRB4 (human) [3] = molecular target: human LILRB4 (human) (UniProt Q8NHJ6); test: competitive FACS; competition with IO-202
human LILRB4 (human) [4] = molecular target: human LILRB4 (human) (UniProt Q8NHJ6); test: FACS

- ADCP (%) at 133.3 nM, macrophages and MV-4-11 cells (human LILRB4 (human) [1]): 2.92%
- FcγR stimulation (TNF-α, pg/mL) (human LILRB4 (human) [1]): 31.6 pg/mL
- Fold change (Compared to isotype) (human LILRB4 (human) [1]): 1 fold
- ELISA(OD450) [2]: 0.152 OD450
Substance: Isotype (hIgG1) (antibody)
- Max cell cytotoxicity (%), ADCC on THP-1 cells (human LILRB4 (human) [1]): 2.75%

- EC50 (hLILRB3 (human)): 42 nM
Substance: Isotype

Substance: IO-202
- IC50 (human LILRB4 (human) [3]): 3.74 nM
- EC50 (human LILRB4 (human) [4]): 1.31 nM
